Experiment: label from the status in PepcDB records
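Note: failed if final PepcDB status was selected cloned or expressed and not failed if soluble or beyond.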

Sequence | protein production
MTETNESSGVNLKKDVKFSIIIPAHNEEKYIRKCLDSIAKASEAYKEQTEVIVVLNRCTDKTEEIAKSYNCVTLKNNDKNLSKIRNAGAKIANGEIIVTIDADTIMTESMLSNVDKYLASGKYIGGGVNGKFERISLGIFLSAMLIIIPLLFKYGAISVGIFWCYRKDFMAINGFNENMLMAEDADFAKRLKEWGKKNNKKFGTIKNGMITSCRRFDTYGDWTLLKNPKVILAYLKGNDRKYADKTYYDNQER | failed
MTETYVLAESPEFYQDNVTDYTGQISSSDITNIQAAIDDVKASEQKVIFVVFLSSFDGVDPETWTQQALQANGGGNVLIYALAPEERQYGIQGGTQWTDAELDAANNAAFQALSQEDWAGSALEHHHHHH | not failed
MTEYVHGYSEREALRLSEQAETLEKLLHHDTVYPPGAKVLEAGCGIGAQTVILAKNNPDAEITSIDISPESLEKARENTEKNGIKNVKFLQANIFSLPFEDSSFDHIFVCFVLEHLQSPEEALKSLKKVLKPGGTITVIEGDHGSCYFHPEGKKAIEAWNCLIRVQAYMKGNSLVGRQIYPLLQESGFEKIRVEPRMVYIDSSKPELVDGFILKTIIPMVEGVKEQSLKMQIIKEEEWEKGIEELHKTAEHGGTFCYTFFKGWGTK | failed
MTFLDKIKQGCLDGWAKYKILPSLTAAQTILESGWGKHAPHNALFGIKADSSWTGKSFDTKTQEEYQAGVVTDIVDRFRAYDSWTDSIIDHGKFLNDNPRYQAVIGETDYKKACHAIKDAGYATASGYAELLIQLIEENDLQEWDEEAIVRKEKQMISSQCREVIEFFINLVNAGVGVDKDGFAGWQCTDVPCYAAKHWFGVDLWGNAIDLLDSAAAVGWEVHRMPTDANPQTGAFFVQSVPYHQFGHTGVVIEDSDGYTMRTIEQNIDGNPDALYVGAPARFNTRDFTGVTGWFYPPYQGDIVTQPVSTEPQTSDTIVETAKTGTFTLDVAEINIRRWPSLTSEVVGSYKQGDTISFDSEGYANGYYWISYVGGSGMRNYTAIGITDKDGNIISLWGKLNLEHHHHHH | not failed
MTFTSNLPSSSEQSISPPASSFSSSTDTLKDIDIPHNGADLSTYSKFLALYCRSDKCDDFYSLEEKQNCKFGDQWLDFINTIHNLDFSESEVSGRVSERILPASLANKFTNNLGVAIKISEYTRDDERQIRGCVTTVENENSFNNWFVYHILDQSQLSLSEHPIVTKEVKYHELFADFFEKNLKNTIVNDQWNFGGRDYFIERSRYFTDRYLRIECILPAFPCKSSNEQKVYGSVPDKGEELALKRLIKATQDLVKIYPPGMKIWIVSDGHVFSDCIGVDDDVVSTYTTKLHELYKRVAIPGVDAIGFCGLNDLFFSGAASKVFDPKWVSDVEVAHYTGTQICPKSDLSRQILMKGCDTDAGRLRKQIAIEGHPRLHLYRGFSRFMMEDLSLLEHFQSYSRKKFKKIISMIAFNMIKRNDAYSNLVELIFPHHLRISIHAHTNSGPKFGIKVISNEQCSIVSSLEDLDEPKFEDFLHIPTPWHNCVVKVEDEKEKYFLTKSKVVKEALEKGMYDGVWKDTRFDIGEGGHFVIKKIS | failed
MTGEEITAAIHQVLTERMNNRHLDGFGPQSRLNADLYLDSVLMLDLLLHLELDHGITAPEEAIATAAIQTVSDLVELLAGASPATSGASDTAVADGPDVHADVYPDIKVHCVVSCLCDAVKAAGLDHRPMYFGIWDADFAVSDKFELRYHTDHISHGFFCHWFHRLYGVRVTEWYDHSAGKQSNLARLIGLVDARRPTESVMVMLDMFHLPERENKFNQYPFPHYLMVEATPDPETWQVRDPDFRWEGPIAKERILNAVAQPSVGGGYIFDRCTMRLPAAVDIGDYFLACFVSDDNPLIRRLREIVDTHLGCRDGLRLQALGDAVRELPVLSIRKWAYEHGFAFFWRELRLPNDAFLTWCDRIEELALGLPALHLKILRLAQTEDRTCAADIHQTLDRLDALETAIKVKLHEVFVAWCSHQGLTRATPRERRVGAR | failed
MTGIFLQAFVYLVAAVIAVPLAKRLGLGSVLGYLIAGVVIGPIIGLVGEETTTIQHFAEFGVVMMLFLVGLELEPKMLWAMRNRLMGLGGLQVGGTVAAIMGIALYFEQPWTIALAIGLIFALSSTAIVLQTFSEKGLTKTEGGKNAFSVLLFQDIAVIPMLAFIPLLALPELVEQAQNAVQTAAQHHDDLNLVADLPGWAYGIVITASIAIVVVGGHFLSRPLLKYVASSGLREIFTATALMLVIGIAALMSLVGLSPALGTFLAGVVLANSEFRHELESNIEPFKGLLLGLFFITVGAGINFSVLFGDFWLIMALTIGVMVLKALVLFILALIFRVKGSNRWLFTLSLAQAGEFGFVLLSFSVQNHVIPFELSQTLALVVAISMFLTPGLFILFDRVILPRFETQSNERESDTIEETGTVIIAGIGRFGQIVNRLLVSNGVTTVVLDHQANQVDNMRQIGTRAYFGDATRPDMLHTAGIEHAAALVVAIDNQESSVELVKYVKHTYPKVKIIARAFDRGHGYLLRQAGADVIESETYHSALEMGGHAMKALGIHPFFVEQQKDTYKRVEARKSEMLYQAWEDDSEGERFDNNFRELFIQLEEKMAEEMRKDRHDKLSRSERGWTPPPKGYAENFDGENVQDITPPKEEAI | failed
MTGKEEISSKYDDYSLKEVPKDSRYGFFNVFLVFSSVYGAIAVIWAGGALGYGLTFSQAIIAVLSGTVVLGILGSLTAAVGAYSGLSTYVMWRHPLGRWGGKIAGLLLITITTGIGWYAVETWLFGIVMSEIFPNNPFFSVGVAAIWGGILMTIMTYVGYRMLSFLSYFTIPFHIWLIAIGIAIVLALKGGFHTVMAAVPTSHMSLLDGISATIGLYSAGTIISPDISRFAKSAKDAGYAWFAHIIFLYPFLILGGVAIVLATGSYLITNAMLELGMGVGVLLIIVFGQFIINTDNLYSGSLSLVNLIPMRREIASVINGVIGTAIAAYVGFSAGSSITPFENFISLLGDFLPAMGGIVLADFYIVKKYVNKIQDPHKRYEFVPNNKYYNINIAGILALALGSIIGYFVNAGIPAINSLVTGFLSYIIIYYIIKAMGKSPEILPFNYEGGILR | failed
MTGKKRSASSSRWLQEHFSDKYVQQAQKKGLRSRAWFKLDEIQQSDKLFKPGMTVVDLGAAPGGWSQYVVTQIGGKGRIIACDLLPMDPIVGVDFLQGDFRDELVMKALLERVGDSKVQVVMSDMAPNMSGTPAVDIPRAMYLVELALEMCRDVLAPGGSFVVKVFQGEGFDEYLREIRSLFTKVKVRKPDSSRARSREVYIVATGRKP | not failed
MTGLSQSQASPMQIQPGNAAFNPWTDAALDTIRDVNQALTLYAEMRVVPAHHDAFLAAIDTVSAKLRVLPGFLSLALKQMSGDSTMVKNYPETYKGVLATAYLDGVAAGTQPYFYNLFVRFADGRAARAAGFEALFETHIHPLLHAMAPRGGDGPELLAYRAVLQSVVAGDRHAIYRGAEEIRSFLRRPVELPERETVTVENHVMVPEDKHAAWEPQVAILLQVAQDTFEPQDEPSGVGLPGARDNRYYRKALSTEILRNAHADGGLRAYIMHGVWESVWDHENSHLDPRFLAAAGPVGAAAVVGPVEPFYLTRRLVVAD | not failed
MTGQELRQLLLDKWGYSYDVQFRRTQGKIFLQVMWKYLEQASFPMNETEYQEHLDSVANYLHALGGAVQVKTFITQTKERPRLGKAVSIPLDLGERASEWIILEHHHHHH | not failed
MTGSQETRITILDAMTANQIAAGEVVERPASVVKELVENSLDAAARHITVEIEGGGLQLIRVRDDGRGIEPEDAPLAFARHATSKIRRAADLARITTLGFRGEALASIAAVARVEMATRPPGRPGGTLVRVAGGKPPEVTETGCPPGTSVTVKDLFYNTPARRQYLKKPSTEARAIVATVERLALGHPGVAFSLSLDGRRSLATPGNGDLQAVLAALYGLEIGRELLPFNGSGAGWSLHGFTSPPWLHRSNRDQQVLLINGRYITNRLLTWAIESCYRNVIPAGRHPLFVLHLAVDPGEVDVNVHPAKLEVRLQREQDLARQVTNLVKGALFTPRAVAPATISRSGDRKGAGSAPPVQQGFTFREPDKQARYWGEYVLRERARENREPEWPEKTGENTGAIKTREVPEGNGPVERDKPDPIGPETPAEETGKQVLPPLRALGQVFNTYILAGGEDGLYIIDQHAAHERCRYEALVKEGTPGSHPAQMLEPPLPLHLAPDMQVKLIDQIITLRELGFIIEEFGTGVFLLRSVPLGIPPGKEREVLEDFLAESTLPAPERLLKLIACHGAIKAGQSLAGAEMQKLLDDLRGVDHPYTCPHGRPAVVRLDEAQLARYFHRHLK | failed
MTGTPQRSHPQPERTFVTIDFAALPDDFLWGTATSAYQIEGAVAEDGRSPSIWDTFSHTPGKIDNGDHGDVACDHYHRTHEDIELMRRLGTNAYRLSVAWPRVVPGGDGPVNAKGLAFYDRLVDDLLAAGITPSVTLYHWDLPQVLQDRGGWPERDTAEHFAAYAAVVAERLGDRVAHWATLNEPLCSAWIGHLEGKMAPGQTDLTAAVRASYHLLLGHGLAMQAIRAAAPDAQVGIVNNLSTIHAATDREEDLAAARRMDGHTNRWWLDPVHGRGFPQDMREVYGVELPERPGDMRLIGAELDWLGLNYYFPQTVAADPTGPAPQVRTVRRAGVPRTGMDWEIDAGGIEELLLRLTEEYGPRKLYVTENGSSFPDLVRPDGSVDDPERQEYLTAHLAACASAARKGAPLAGYFAWSLLDNFEWAYGYDKRFGLVHVDYATQVRTIKGSGHHYADIIGRARGRERKAA | failed
MTGTRIAIGICTFRRPGIAATLASLGALRWPEGMSGLVIVADNDETPSARETVHAAAKGLPLPVCYLHAPARNISVARNAILEAAGARGLERLAFLDDDEMVEPGWIEALTEALARTGAEAVLGPVRAEHGAEAPAWMRESAIHDTRPTFLPDGSIKSGYSCNVLMDLTAPALEGLRFDPERGRSGGEDTAFFEAMLRRGGRLGFAPDALVRETVPADRARLGWLLRRRFRMGQTHASLIAGPGRAQRAKQALVALSKVAACSGMALAAVHDPLRRNNALLRGALHVGTLSALFGARPITIYGGTGPAPSTFDSKTDSYLVSRSRT | failed
MTGVFLPPLPPSLRLQIKTMAESILPNAIRSQSQPQAFVQVEVWIRRLVWKIVIATVLLMAVGSATRVMNAGLACPDWPLCYGQWVPSQQMNLQVFLEWFHRLDAALIGFSTLILVGLSWWFRRVLPKWLPWATLGSLALILVQGLLGGLTVIELLRFDIVTAHLGTAMAFLGSLVIIGLCLMPYQSNQTAGKLRPVALASTTIIYLQCLLGGLVGSQWAAHQCLAIAGTQFCQVLHSHLLGVLPTVLGVGLTFWCTRRTPALNPFLRQLGNGALALLGGQILLGVATLKLHLQIEPLTVAHHTVGICLWATLLAIAVLAVRDHRPTAPITS | failed
MTHLKIFLLLIVCALSVLDGKAQTGIALTDELNGKRIGVIGDSYVRNHKEPFENTWHYKFAKKHGMEYFNYGKNGNSIAYSSPRWGKAMYLRYAEMADSLDYVIVIGGHNDAFKLDSIGGIDNFKDKMEILCKGLVEKYPTAKIFFFTRWNCKNFKGSDSEKVVDAMIEVCGNYSIPIFDCARKGSIYADNDTFRRIYFQKSKNNTDTAHLNSKGHDRFLKVAESFLLQYLEHHHHHH | failed
MTHVTLRSEFETLIDPYAPVAQVGTGFDFTEGPIWHPIDHYLLFSDMPGDVRRRWDARRGMAEVKRPSNKCNGMTYDAELNLIVCEHATSSLIRERPDGRREVLASHFGGQELNSPNDVCVHSSGAIYFSDPWYGRMPVYGVERPRQLGFQGVYRVMPGGEPKLVVDRNLFDQPNGLCFSPDERLLYVNDTVQALIRVFDVNADGTLSNARVFASSIKSELEPGLPDGMKCDQHGNVWVTAPGGVWVYSPRGELLGKVRVPELVANLAWGGPDFRTLYLTSTHSVYAIPTRVGPRHEPYMSGRRGGAGASAGPAAAAPILTDGEMRLDPQRCAMIIQDLQNDVIMDGGAFDGSGAPAHAKQQHVVENVRRLAEAARARGVAIIHVWFVVEPGAPGVTLNAPLFEGLVDSKAMVRGSWGAAPVSGLEPRPGDFVVEKMRMSAWEGTRLETILKATGRDMIINTGAWTNMSVEHTARTGADKGYFMIVPEDCCSTMNADWHSASINFAMQNVAIVTRADAVIRALG | failed
